Publication PMC12395300 (ACS Central Science, 2025)

Molecular target: PD1 (as used in the ELISA) (Mus musculus, UniProt Q02242)
Sequence (Q02242 25-288): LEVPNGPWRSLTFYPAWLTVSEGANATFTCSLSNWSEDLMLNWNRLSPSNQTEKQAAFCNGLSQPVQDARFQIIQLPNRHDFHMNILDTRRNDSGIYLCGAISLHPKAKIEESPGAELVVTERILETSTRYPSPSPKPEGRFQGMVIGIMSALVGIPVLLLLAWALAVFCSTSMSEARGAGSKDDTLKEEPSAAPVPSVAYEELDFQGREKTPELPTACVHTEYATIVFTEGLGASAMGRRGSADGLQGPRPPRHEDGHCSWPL

B1: anti-hPD1 (pembrolizumab) (antibody, V domains shown)
VH: QVQLVQSGVEVKKPGASVKVSCKASGYTFTNYYMYWVRQAPGQGLEWMGGINPSNGGTNFNEKFKNRVTLTTDSSTTTAYMELKSLQFDDTAVYYCARRDYRFDMGFDYWGQGTTVTVSS
VL: EIVLTQSPATLSLSPGERATLSCRASKGVSTSGYSYLHWYQQKPGQAPRLLIYLASYLESGVPARFSGSGSGTDFTLTISSLEPEDFAVYYCQHSRDLPLTFGGGTKVEIK
B1: binds.
